Experimental data taken from patent US20120164161A1 (AFFITECH RESEARCH, published 2012).

T1: human CC chemokine receptor 4 (CCR4) (human, UniProt P51679 1-360)
T1 sequence (looked up): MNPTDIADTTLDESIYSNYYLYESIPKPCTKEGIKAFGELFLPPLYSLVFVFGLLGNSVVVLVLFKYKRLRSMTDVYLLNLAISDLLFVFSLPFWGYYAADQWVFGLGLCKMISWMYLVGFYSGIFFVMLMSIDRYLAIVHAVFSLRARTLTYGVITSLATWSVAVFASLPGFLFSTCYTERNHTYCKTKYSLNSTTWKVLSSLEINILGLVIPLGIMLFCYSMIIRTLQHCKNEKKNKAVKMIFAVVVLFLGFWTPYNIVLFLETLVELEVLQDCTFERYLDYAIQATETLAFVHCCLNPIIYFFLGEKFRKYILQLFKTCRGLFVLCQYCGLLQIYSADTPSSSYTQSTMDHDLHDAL

T2: mouse CCR4 (mouse, UniProt P51680 1-360)
T2 construct: whole, on cells; also called murine CCR4
T2 sequence (looked up): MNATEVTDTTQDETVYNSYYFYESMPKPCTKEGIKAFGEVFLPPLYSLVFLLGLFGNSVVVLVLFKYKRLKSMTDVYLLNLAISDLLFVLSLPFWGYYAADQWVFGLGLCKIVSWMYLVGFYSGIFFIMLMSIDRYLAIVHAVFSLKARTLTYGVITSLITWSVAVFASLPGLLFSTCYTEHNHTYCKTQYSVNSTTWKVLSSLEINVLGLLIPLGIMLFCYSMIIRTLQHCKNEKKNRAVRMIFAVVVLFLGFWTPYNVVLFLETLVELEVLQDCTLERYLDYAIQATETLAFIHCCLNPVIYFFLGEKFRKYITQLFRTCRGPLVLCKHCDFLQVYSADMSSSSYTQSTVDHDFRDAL

T3: monkey (Macaca mulatta) CCR4 (monkey (Macaca mulatta), UniProt F7GUA3 1-360)
T3 construct: also called monkey CCR4
T3 sequence: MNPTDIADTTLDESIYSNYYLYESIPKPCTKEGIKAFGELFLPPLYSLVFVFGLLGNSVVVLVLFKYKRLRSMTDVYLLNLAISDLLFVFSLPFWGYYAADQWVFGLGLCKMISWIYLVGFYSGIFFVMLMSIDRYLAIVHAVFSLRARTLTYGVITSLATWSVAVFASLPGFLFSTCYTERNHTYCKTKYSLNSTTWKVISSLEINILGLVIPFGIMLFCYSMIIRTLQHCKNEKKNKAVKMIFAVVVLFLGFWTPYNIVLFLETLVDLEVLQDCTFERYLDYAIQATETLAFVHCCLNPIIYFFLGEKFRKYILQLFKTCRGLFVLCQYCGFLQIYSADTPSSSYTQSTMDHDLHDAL


Columns and labels:
[1] = target: T1, human CC chemokine receptor 4 (CCR4); assay: cell-based or functional assay
[2] = target: T1, human CC chemokine receptor 4 (CCR4); assay: flow cytometry on DT40 cells expressing human CCR4; scFv cross-linked with mouse anti-Myc antibody, detected with RPE anti-mouse IgG; MFI (PE-signal)
Description: For the flow cytometry experiments, the cells were harvested from the culture flasks, washed 2 times with PBS, re-suspended in PBS with 0.2% BSA and 0.09% NaN3 and finally aliquoted 1×10^5 cells per well into V-shaped 96-well plates (Greiner Bio-One, Frickenhausen, Germany). Cells were centrifuged at 400×g for 5 min and then incubated at 4° C. for 60 min with different scFv dilutions.
All scFv preparations were pre-incubated with a mouse anti-myc-antibody (9E10.2, Diatec, Oslo, Norway) to cross-link scFvs prior adding to the cells and diluted 3-fold, starting at a concentration of 10 μg/ml.
After washing with PBS with 0.2% BSA and 0.09% NaN3, the cells were stained with 1 μg/ml of RPE-conjugated goat anti-mouse IgG (AbD Serotec, Duesseldorf, Germany) for 30 minutes at 4° C. The stained cells were washed, re-suspended in 200 μl PBS with 0.2% BSA and 0.09% NaN3 and transferred to a U-shaped 96-well plate (Corning, Schiphol-Rijk, The Netherlands) for acquisition on EasyCyte flow cytometer (Guava Technologies, Hayward, Calif., USA).

[3] = target: T1, human CC chemokine receptor 4 (CCR4); assay: cell-based or functional assay; remark: listed apart in the source
[4] = target: T1, human CC chemokine receptor 4 (CCR4); assay: cell-based or functional assay; remark: listed apart in the source
[5] = target: T1, human CC chemokine receptor 4 (CCR4); assay: cell-based or functional assay; remark: listed apart in the source
mouse CCR4 = target: T2, mouse CCR4; assay: flow cytometry on transiently transfected HEK-293T/17 cells, IgG 1 ug/ml
Description: (§1) For transient transfection, Hek293T/17 cells were seeded as 2×10^6 cells in a T75 (NUNC) flask. 48 h after seeding, the cells were transfected with Fugene (ROCHE). 40 μl Fugene and 16 μg DNA are used per T75. The cells were used for assays 48 h after transfection.
(§2) Non-transfected (CCR4 negative) cells served as a negative control. The cells were cultivated further for 48 hours under regular conditions and harvested form flasks as described above. One times 10^5 cells per well were aliquoted into V-shaped 96-well plates (Greiner Bio-One, Frikenhausen, Germany). […] The samples were then washed twice by centrifugation and re-suspension in 150 μl FACS buffer. […] The samples were washed twice as described above and re-suspended in 250 μl FACS buffer followed by transfer into a U-shaped 96-well plate (Corning, Schiphol-Rijk, Netherlands) for flow cytometry on FACSCantoII (BD Biosciences, San Jose, Calif.).

[6] = target: T3, monkey (Macaca mulatta) CCR4; assay: flow cytometry on transiently transfected HEK-293T/17 cells, IgG 1 ug/ml (data not shown)
Description: as §1, §2

[7] = target: T1, human CC chemokine receptor 4 (CCR4); assay: flow cytometry competition; IgG titrated from 5 ug/ml against fixed Alexa647 MDC-SNAP (50 nM); competitor MDC-SNAP
[8] = target: T1, human CC chemokine receptor 4 (CCR4); assay: flow cytometry competition; IgG titrated from 2.5 ug/ml against fixed biotinylated TARC; competitor biotinylated TARC
[9] = target: T1, human CC chemokine receptor 4 (CCR4); assay: flow cytometry on CCRF-CEM cells; defucosylated IgG1, detected with RPE anti-human IgG; Median-PE [panel CCRF-CEM]
Description: (§3) All cells were re-suspended in PBS with 0.2% BSA and 0.09% NaN3 and finally aliquoted 1×10^5 cells per well into V-shaped 96-well plates (Greiner Bio-One, Frickenhausen, Germany). Cells were centrifuged at 400×g for 5 min and then incubated at 4° C. for 60 min with different IgG dilutions. For binding in presence of human serum, CCRF-CEM cells were incubated with different IgG-solutions at either 10% or 50% of human serum (Sigma Aldrich, St Louis, Mo., USA) at 37° C. for 60 min.

[10] = target: T1, human CC chemokine receptor 4 (CCR4); assay: flow cytometry on Hut78 cells (CCR4-positive); defucosylated IgG1, detected with RPE anti-human IgG; Median-PE [panel Hut78]
Description: as §3

[11] = target: T1, human CC chemokine receptor 4 (CCR4); assay: cell-based or functional assay; remark: listed apart in the source

| IC50 of inhibition of TARC-mediated Ca-Flux in CCRF-CEM cells [1] [pM] | EC50 (read off the curve) [2] [µg/mL] | Inhibition of MDC (Ca-Flux), Blockage of signaling in % at 10 µg/ml IgG [3] [%] | Inhibition of TARC (Ca-Flux), IC50 [3] [pM] | Inhibition of CCL17/TARC-induced migration of CCRF-CEM cells, IC50 [4] [pM] | Inhibition of CCL22/MDC-induced migration, Blockage of migration in % (IgG 10 µg/ml) [4] [%] | ADCC on CCRF-CEM cells with human PBMCs, EC50 [5] [pM] | ADCC on L-428 cells with human PBMCs, EC50 [5] [pM] | binding result (mouse CCR4) | binding result [6] | IC50 [7] [pM] | IC50 [8] [pM] | EC50 (read off the curve) [9] [pM] | EC50 (read off the curve) [10] [pM] | IC50 of inhibition of CCL17/TARC-induced invasion of 786-O cells, CCL17/TARC 25 nM [11] [µg/mL] | IC50 of inhibition of CCL17/TARC-induced invasion of 786-O cells, CCL17/TARC 125 nM [11] [µg/mL] | Binder | ADCC on CCRF-CEM cells, Max. Killing (%; nM IgG) [5] | ADCC on L-428 cells, Max. Killing (%; nM IgG) [5] |
| --- | --- | --- | --- | --- | --- | --- | --- | --- | --- | --- | --- | --- | --- | --- | --- | --- | --- | --- |
| 2 | ~0.3 | – | – | – | – | – | – | – | – | – | – | – | – | – | – | 603 scFv (scFv, not shown: small tags and cut ends, Expressed in TG1 bacteria; also called scFv 603; antibody 603 (single chain form)) scFv: QVQLVQSGAEVKKPGSSVKVSCKASGGTFSSYAMSWVRQAPGQGLEWMGGIIPIFGTVNYAQKFQGRVTMTRDTSTSTVYMELSSLRSDDTAVYYCARRRGAKFDYWGQGTLVTVSSKLSGSASAPKLEEGEFSEARVSYVLTQPPSASGTPGQSVTISCSGSTSNIGSHYVVWYQQLPGTAPRLLIYRNHQRPSGVPDRLSGSKSGTSASLAIGGLRSEDEADYYCAVWDDTLSGWVFGGGTKLTVL | – | – |
| – | – | 74 | 39 | 158 | 50 | 114 | 708 | binds | binds | 280 | 510 | ~60 | ~60 | – | – | IgG form of antibody 306 (defucosylated IgG1) (antibody, V domains shown, Human IgG1, lambda light chain; produced in presence of Kifunensine (defucosylated); Biotinylated via cysteines for the human serum experiment) VH: QVQLVQSGAEVKKPGSSVKVSCKASGGTFSSYAMSWVRQAPGQGLEWMGGIIPIFGTVNYAQKFQGRVTMTRDTSTSTVYMELSSLRPDDTAVYYCARRGGSYFDYWGQGTLVTVSS VL: SYVLTQPPSASGTPGQSVTISCSGSTSNIGSHYVSWYQQLPGTAPRLLIYRNHQRPSGVPDRLSGSKSGTSASLAISGLRSEDEADYYCAVWDAKYRGWVFGGGTKLTVLG | 118 % (at 1.4 nM IgG) | 88 % (at 7 nM IgG) |
| – | – | 74 | 28 | 178 | 49 | 99.9 | 704 | binds | binds | 270 | 940 | ~200 | ~80 | – | – | IgG form of antibody 406 (defucosylated IgG1) (antibody, V domains shown, Human IgG1, lambda light chain; produced in presence of Kifunensine (defucosylated); Biotinylated via cysteines for the human serum experiment) VH: QVQLVQSGAEVKKPGSSVKVSCKASEGTFSSYAMSWVRQAPGQGLEWMGGIIPIFGTVNYAQKFQGRVTMTRDTSTSTVYMELSSLRSDDTAVYYCARRGGSYFDYWGQGTLVTVSS VL: SYVLTQPPSASGTPGQSVTISCSGSTSNIGSHYVSWYQQLPGTAPRLLIYRNHQRPSGVPDRLSGSKSGTSASLAISGLRSEDEADYYCAVWDAKYRGWVFGGGTKLTVLG | 121 % (at 1.4 nM IgG) | 78 % (at 7 nM IgG) |
| – | – | 64 | 13 | 39 | 39 | 5.3 | 233 | binds | binds | 110 | 870 | ~20 | ~50 | 0.12 | 1.33 | IgG form of antibody 503 (defucosylated IgG1) (antibody, V domains shown, Human IgG1, lambda light chain; produced in presence of Kifunensine (defucosylated); Biotinylated via cysteines for the human serum experiment) VH: QVQLVQSGAEVKKPGSSVKVSCKASEGTFSSYAMSWVRQAPGQGLEWMGGIIPIFGTVNYAQKFQGRVTMTRDTSTSTVYMELSSLRSDDTAVYYCARRRGAKFDYWGQGTLVTVSS VL: SYVLTQPPSASGTPGQSVTISCSGSTSNIGSHYVVWYQQLPGTAPRLLIYRNHQRPSGVPDRLSGSKSGTSASLAIGGLRSEDEADYYCAVWDDTLSGWVFGGGTKLTVLG | 108 % (at 1.4 nM IgG) | 93 % (at 7 nM IgG) |
